Consider 1 molecule from US8487082B2, “Synthetic scFv analogue to the 6313/G2 (anti angiotensin II type 1 receptor) monoclonal antibody variable regions” (Queen Mary & Westfield College, priority 2008, dated 2013).

Data set [1] concerns the target T1, antigenic peptide […] (AT1 receptor) (Rattus norvegicus, UniProt P25095).
T1 construct: 96 well plates coated with the original antigenic peptide ([…]
Put plainly: Antigen ELISA during panning of scFv library. Type of data set: binding. As for the experimental part:
The 6313/G2 mouse monoclonal antibody hybridoma was grown as previously described (Barker et at J. Mol. Endocrinol. 11 241-245 (1993)). A pool of cDNA derived from mRNA was used to obtain heavy and light chains by PCR. A linker fragment encoding (Gly4Ser)3 was used to assemble the scFv library of inserts and a phage display library was created by directionally cloning these inserts into the pCANTAB 5 E phagemid vector (Amersham Pharmacia, High Wycombe, UK). An E-tag for the expressed sequence GAPVPYPDPLEPR (SEQ ID NO: 11) was included in this vector and used in subsequent panning and purification steps. The phagemid library was then used to transform TG1 E. coli, and phagemid rescue was carried out using the M13K07 helper phage followed by several rounds of panning Positive expressing clones were identified by ELISA using 96 well plates coated with the original antigenic peptide (EDGIKRIQDD; SEQ ID NO:1) and an anti-E-tag antibody (Amersham Pharmacia) detected using an HRP-linked secondary antibody. One particular clone was taken forward for expression and purification and functional assessment on the basis of giving the highest signal in the antigen ELISA.

Data set [2] relates to MDA-MB-231 cells. Put plainly: Cell viability assay (XTT). Type of data set: cell-based. The note with it: MDA-MB-231, 100 nmol angiotensin II per L, XTT, 48 hours. The method, then: (§1) MCF-7, T47D and MDA-MB-231 breast cancer cells were obtained from The American Tissue Culture Collection (LGC Promochem, Teddington, UK). Rat aortic smooth muscle cells (RASMC) were developed from primary culture (Barker et al., 1996). MCF-7 cells were maintained in Minimal Essential Medium (MEM), T47D and MDA-MB-231 cells in RPMI 1640 medium, and RASMC were maintained in Dulbecco's Modified Eagle's Medium (DMEM). All media were supplemented with 2 mM L-glutamine, 10% fetal bovine serum (FBS), 50 U/ml penicillin and 0.05 mg/ml streptomycin. Cells were maintained at 37° C. in a humidified atmosphere ([…], 5% CO2).
(§2) Confluent cell monolayers were removed from tissue culture flasks using trypsin/EDTA. Cells (15×10^3 per well) were seeded into 96 well tissue culture plates containing the appropriate medium for each cell line. […] Cell viability was assessed by the ability of metabolically active cells to reduce 2,3-bis[2-Methoxy-4-nitro-5-sulphophenyl]-2H-tetrazolium-5-carboxyanilide inner salt (XTT) to the coloured formazan product. Absorbance was measured using a Multiskan Ascent microplate reader (Thermo Labsystem, Helsinki, Finland) at a wavelength of 450 nm and a reference wavelength of 630 nm. Each measurement was performed in triplicate. IC50s were calculated using a non-linear regression formula using GraphPad Prism v4.0 software (GraphPad Software Inc, San Diego Calif., USA).

For data set [3], the system named is MCF-7 cells. Put plainly: Cell viability assay (XTT). Type of data set: cell-based. The note with it: MCF-7, 100 nmol angiotensin II per L, XTT, 48 hours. The method, then:
as §1, §2

Data set [4] relates to T47D cells. Put plainly: Cell viability assay (XTT). Type of data set: cell-based. The following applies: 100 nmol angiotensin II per L, XTT, 48 hours. The method, then: as §1, §2
Data set [5] is described as follows: Body weight and mortality in xenograft assay. The following applies: for body weight: MCF7 xenograft mice. Type of data set: in vivo, mice. As for the experimental part:
Mice were injected s.c. on the right-flank, with 150 μl sterile PBS containing 7.5×10^6 MCF-7 cells. Tumour cells were allowed to grow for 4 weeks without hormone support, thereafter mice received weekly s.c. injections of 17β-oestradiol valerate (0.1 mg/Kg body weight), in sesame oil (Kasukabe et al., Breast Cancer Res. 7(6) R1097-110 (2005)) for a further 8 weeks. Animals were monitored daily for general health, and body weights were measured twice-weekly. Tumour size was measured 3 times per week with slide callipers, and volumes were calculated as (L×W^2)/2, where L and W are the major and minor diameters, respectively. Once tumour volumes reached 150 to 200 mm^3, mice were randomized to treatment and control groups of 8 to 10 per group. Mice were treated by subcutaneous injections of R6313/G2 in sterile PBS (0.1 ml) at doses of 0.4 mg/kg (13 nmol/kg), 0.8 mg/kg (27 nmol/Kg), and 1.36 mg/kg (45.3 nmol/kg) body weight, twice per day for seven days. Control mice received sterile PBS. At the termination of the study, animals were sacrificed by cervical dislocation. Relative body weights (%) were calculated as (Wt/Wi)×100, where Wt is the body weight at any given time and Wi is the body weight at treatment initiation. Net tumour volume was calculated as Vt-Vi, where Vt is the tumour volume at any given time and Vi is the tumour volume at the start of treatment, and expressed as a percentage of Vi.

B1: R6313/G2: murine scFv analogue of the 6313/G2 anti-AT1 receptor monoclonal antibody variable domains, SEQ ID NO:15 (protein)
scFv: YAAQPAMAQVKLQQSGPELEKPGASVKISCKASGYSFTGYNMNWVKQSNGKSLEWIGNIDPYYGGTTYNQKFKGKATLTVDKSSSTAYMQLKSLTSEDSAVYYCAREVDYWGQGTTVTVSSGGGGSGGGGSGGGGSDIELTQSPASLAVSLGQRATISYRASKSVSTSGYSYMHWNQQKPGQPPRLLIYLVSNLESGVPARFSGSGSGTDFTLNIHPVEEEDAATYYCQHIRELTRSEGTKLEIKRAAAGAPVPY
modifications: 12D
Take B1: the “activity of clones (preliminary studies)” value in data set [1] is on record as “highest activity”. Also, the “Threshold value for inhibition of cell survival (P<0.05 or better)” value was determined as 0.05 µM in data set [2], 0.05 µM in data set [3] and 1.25 µM in data set [4]. Moreover, the IC50 in data set [4] (read-out: IC50, inhibition of cell survival) was found to be 2800 nM. For the same molecule, the “other effects in xenograft mice” value in data set [5] (13 nmol/kg) is “without other effects”. For the same molecule, the mortality result in data set [5] (0.4 mg/kg twice per day, during the treatment period) was “no mortality”; in data set [5] (0.8 mg/kg group, by day 8, n=8), “four died by day 8”; in data set [5] (0.8 mg/kg twice per day, during the treatment period), “no mortality”; in data set [5] (1.36 mg/kg group, by day 8) it was “all died by day 8”. Moreover, the body weight entry in data set [5] (0.4 mg/kg (13 nmol/kg) twice per day) is listed as “no weight loss”; in data set [5] (0.8 mg/kg (27 nmol/kg) twice per day) it was “no weight loss”; in data set [5] (1.36 mg/kg (45.3 nmol/kg) twice per day), “significantly reduced”.

Usually IC50 stands for the concentration at which inhibition is half-maximal.
